From paper PMC11809610
Each block holds one molecule with its values, some of them ahead of it.

What was measured:
[1] = target: CD95 (full-length protein, amino acids 1 to 335) fused C-terminally to mEGFP or mCherry (human (from the printed accession)) (UniProt P25445)
[2] = target: T1, CD95 (full-length protein, amino acids 1 to 335) fused C-terminally to mEGFP or mCherry (human (from the printed accession)), P25445; test: FRET or BRET; CELFIS (FRET-FLIM) in live HeLa CD95^KO cells with bicistronic mCherry/mEGFP plasmids; after addition of CD95L (200 ng/ml with enhancer); repeated measurements up to 6 hours; 37°C; conditions: remark: other sources report otherwise
T1 chain: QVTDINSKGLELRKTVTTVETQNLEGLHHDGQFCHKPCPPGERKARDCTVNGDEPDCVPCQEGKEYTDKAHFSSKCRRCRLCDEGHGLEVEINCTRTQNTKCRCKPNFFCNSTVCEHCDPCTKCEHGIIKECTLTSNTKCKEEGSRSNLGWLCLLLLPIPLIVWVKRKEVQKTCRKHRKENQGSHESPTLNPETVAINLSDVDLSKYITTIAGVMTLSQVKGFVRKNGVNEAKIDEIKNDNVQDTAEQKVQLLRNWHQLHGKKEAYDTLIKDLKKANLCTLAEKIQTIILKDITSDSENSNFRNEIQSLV

[3] = target: T1, CD95 (full-length protein, amino acids …); test: FRET or BRET; CELFIS (FRET-FLIM, donor lifetime, x_FRET for each cell) in live HeLa CD95^KO cells with bicistronic mCherry/mEGFP plasmids; no ligand; evaluated from 30 up to 1000 receptors/μm^2; 37°C; conditions: remark: other sources report otherwise

percentage of apoptotic cells (time-lapse microscopy, HeLa cells expressing CD95-mEGFP), CD95L 2 to 200 ng/ml (% apoptotic cells) [1]: 99
Molecule: FasL, soluble (human) (recombinant) (from UniProt P48023 130-281) (ligand)

oligomer fraction with CD95L [2]: < 21%
oligomer fraction with CD95L, cells that did not show apoptosis, after 4 hours [2]: 12%
oligomer fraction with CD95L, cells that underwent apoptosis [2]: 18%
oligomer fraction with CD95L, just before apoptosis [2]: 15%
oligomerization rate with CD95L, cells that died (% oligomers/hour) [2]: 6
oligomerization rate with CD95L, cells that stayed alive (% oligomers/hour) [2]: 2.3
x FRET with CD95L [2]: 12%
dimer fraction [3]: < 4%
monomer fraction [3]: 96%
B1: CD95 (full-length protein, amino acids 1 to 335) fused C-terminally to mEGFP or mCherry, P25445 26-335 (receptor)
chain: T1 chain
